Where two headings read alike, the source gives them in different places. Values belong to the binder of their own block, whether it stands above or below them. [ ]: non-standard residue; d: D form. The star is where a group is joined. dCha = N[C@H](CC1CCCCC1)C(=O)O; NH(CH2)3Ph = c1ccc(CCCN*)cc1
Key:
[1] = biological target: melanocortin 1 receptor (MC1R) (UniProt Q01726); assay: 125I-NDP-MSH competition, HEK293 membranes
[2] = biological target: melanocortin 3 receptor (MC3R) (UniProt P41968); assay: 125I-NDP-MSH competition, HEK293 membranes
Sequence of melanocortin 3 receptor (MC3R) (P41968 whole entry): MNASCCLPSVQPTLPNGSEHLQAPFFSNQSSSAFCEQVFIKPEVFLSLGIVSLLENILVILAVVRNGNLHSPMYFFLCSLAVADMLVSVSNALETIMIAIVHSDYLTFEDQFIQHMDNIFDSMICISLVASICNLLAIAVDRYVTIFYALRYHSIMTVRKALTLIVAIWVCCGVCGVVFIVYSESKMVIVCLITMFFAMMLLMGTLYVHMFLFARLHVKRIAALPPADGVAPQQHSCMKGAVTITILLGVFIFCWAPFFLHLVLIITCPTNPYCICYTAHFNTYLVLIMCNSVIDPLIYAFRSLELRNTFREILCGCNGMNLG

[3] = biological target: melanocortin 5 receptor (MC5R) (UniProt P33032); assay: 125I-NDP-MSH competition, HEK293 membranes
Sequence of melanocortin 5 receptor (MC5R) (P33032 whole entry): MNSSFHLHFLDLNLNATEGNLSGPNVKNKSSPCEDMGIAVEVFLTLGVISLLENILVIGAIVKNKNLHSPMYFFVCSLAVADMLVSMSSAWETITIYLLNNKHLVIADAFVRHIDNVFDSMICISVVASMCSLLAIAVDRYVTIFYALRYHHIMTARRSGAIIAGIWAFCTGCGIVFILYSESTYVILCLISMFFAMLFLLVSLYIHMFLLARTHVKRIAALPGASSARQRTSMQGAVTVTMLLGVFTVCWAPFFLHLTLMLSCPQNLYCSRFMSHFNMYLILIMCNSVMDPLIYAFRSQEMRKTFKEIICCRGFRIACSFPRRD

[4] = biological target: melanocortin 4 receptor (MC4R) (UniProt P32245); assay: 125I-NDP-MSH competition, HEK293 membranes
Sequence of melanocortin 4 receptor (MC4R) (P32245 whole entry): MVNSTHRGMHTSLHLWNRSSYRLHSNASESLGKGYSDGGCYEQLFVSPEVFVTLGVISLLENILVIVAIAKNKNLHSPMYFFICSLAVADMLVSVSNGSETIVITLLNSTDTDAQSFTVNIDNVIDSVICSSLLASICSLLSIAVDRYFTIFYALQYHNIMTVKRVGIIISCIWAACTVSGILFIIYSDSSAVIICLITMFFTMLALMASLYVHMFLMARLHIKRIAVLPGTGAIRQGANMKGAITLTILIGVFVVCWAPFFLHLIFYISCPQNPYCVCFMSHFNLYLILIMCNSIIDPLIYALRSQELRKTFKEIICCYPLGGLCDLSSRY

[5] = biological target: melanocortin 1 receptor (MC1R) (UniProt Q01726); assay: 125I-NDP-MSH competition, HEK293 membranes; remark: listed apart in the source
[6] = biological target: mouse MC1R (on murine B16-F1 melanoma cells) (mouse) (UniProt Q01727); assay: cell-based or functional assay
Sequence of mouse MC1R (on murine B16-F1 melanoma cells) (mouse) (Q01727 whole entry): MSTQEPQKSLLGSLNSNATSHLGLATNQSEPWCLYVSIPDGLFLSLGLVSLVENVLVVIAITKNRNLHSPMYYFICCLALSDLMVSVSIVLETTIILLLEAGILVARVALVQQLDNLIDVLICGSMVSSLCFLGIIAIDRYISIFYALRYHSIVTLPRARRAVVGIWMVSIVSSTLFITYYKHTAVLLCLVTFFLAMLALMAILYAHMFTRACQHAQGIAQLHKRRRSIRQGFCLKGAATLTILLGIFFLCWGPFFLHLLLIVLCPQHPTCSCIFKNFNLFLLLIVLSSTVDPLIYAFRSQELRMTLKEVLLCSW

Sequence of melanocortin 1 receptor (MC1R) (Q01726 whole entry): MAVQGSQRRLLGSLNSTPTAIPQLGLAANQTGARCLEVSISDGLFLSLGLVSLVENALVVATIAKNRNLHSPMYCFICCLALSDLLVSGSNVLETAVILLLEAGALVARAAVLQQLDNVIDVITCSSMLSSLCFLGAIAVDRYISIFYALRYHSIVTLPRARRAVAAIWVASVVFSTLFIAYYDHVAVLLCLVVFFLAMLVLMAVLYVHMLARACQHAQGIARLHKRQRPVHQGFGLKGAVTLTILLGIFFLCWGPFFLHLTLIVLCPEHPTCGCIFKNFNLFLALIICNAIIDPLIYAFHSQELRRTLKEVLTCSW

B1: peptide 811 (peptide)
peptide: VPKGWAFHEMSYS
modifications: N-terminal acetyl (Ac); C-terminal amide; D-isomers at all residues except Gly 4
Ki [1]: 13000 nM

B2: peptide 886 (peptide)
peptide: Ac-[dV][dP][dK]G[dW][dR][dF][dH][dS][dI][dI][dS][dS]-NH2
SMILES: CC[C@@H](C)[C@@H](NC(=O)[C@@H](CO)NC(=O)[C@@H](Cc1c[nH]cn1)NC(=O)[C@@H](Cc1ccccc1)NC(=O)[C@@H](CCCNC(=N)N)NC(=O)[C@@H](Cc1c[nH]c2ccccc12)NC(=O)CNC(=O)[C@@H](CCCCN)NC(=O)[C@H]1CCCN1C(=O)[C@H](NC(C)=O)C(C)C)C(=O)N[C@@H](C(=O)N[C@H](CO)C(=O)N[C@H](CO)C(N)=O)[C@H](C)CC
Ki [1]: 1 nM
Ki [2]: 19000 nM
Ki [3]: 20000 nM
Ki [4]: 10000 nM

B5: peptide 869 (peptide)
peptide: VPKGWRXHEMSYS
modifications: N-terminal acetyl (Ac); C-terminal amide; D-cyclohexylalanine (D-Cha) at 7; D-isomers at all residues except Gly 4
Ki [1]: 2.2 nM
Ki [3]: 25000 nM

B6: peptide 872 (peptide)
peptide: VPKGWRFREMSYS
modifications: N-terminal acetyl (Ac); C-terminal amide; D-isomers at all residues except Gly 4
Ki [1]: 13.5 nM

B8: peptide 878 (peptide)
peptide: VPKGWRFHEXSYS
modifications: N-terminal acetyl (Ac); C-terminal amide; D-buthionine at 10; D-isomers at all residues except Gly 4
Ki [1]: 2.3 nM
Ki [2]: 40000 nM
Ki [3]: 30000 nM

B9: peptide 807 (peptide)
peptide: VPKGWRFHEASYS
modifications: N-terminal acetyl (Ac); C-terminal amide; D-isomers at all residues except Gly 4
Ki [1]: 1400 nM

B12: peptide 847int (peptide)
peptide: H-[dV][dP][dK]G[dW][dR][dF][dH]-OH
SMILES: CC(C)[C@@H](N)C(=O)N1CCC[C@@H]1C(=O)N[C@H](CCCCN)C(=O)NCC(=O)N[C@H](Cc1c[nH]c2ccccc12)C(=O)N[C@H](CCCNC(=N)N)C(=O)N[C@H](Cc1ccccc1)C(=O)N[C@H](Cc1c[nH]cn1)C(=O)O
Ki [1]: 150 nM

Binder: Ac-[dW][dR]F[dH]-{1,6‑diaminohexane-stearyl} [peptide 882]
fold improvement of binding over wrFh [5]: > 250 fold
Ki [1]: 120 nM

B16: peptide 873 (peptide)
peptide: VPKGWRFWEMSYS
modifications: N-terminal acetyl (Ac); C-terminal amide; D-isomers at all residues except Gly 4
Ki [1]: 1900 nM

B17: peptide 857 (peptide)
peptide: VPXGWRFHEMSYS
modifications: N-terminal acetyl (Ac); C-terminal amide; D-Ornithine at 3; D-isomers at all residues except Gly 4
Ki [1]: 3 nM

B20: peptide 812 (peptide)
peptide: VPKGARFHEMSYS
modifications: N-terminal acetyl (Ac); C-terminal amide; D-isomers at all residues except Gly 4
Ki [1]: 3000 nM

B21: peptide 809 (peptide)
peptide: VPKGWRFAEMSYS
modifications: N-terminal acetyl (Ac); C-terminal amide; D-isomers at all residues except Gly 4
Ki [1]: 1200 nM

B22: peptide 847 (peptide)
peptide: H-[dV][dP][dK]G[dW][dR][dF][dH]-{NH(CH2)3Ph}
SMILES: CC(C)[C@@H](N)C(=O)N1CCC[C@@H]1C(=O)N[C@H](CCCCN)C(=O)NCC(=O)N[C@H](Cc1c[nH]c2ccccc12)C(=O)N[C@H](CCCNC(=N)N)C(=O)N[C@H](Cc1ccccc1)C(=O)N[C@H](Cc1c[nH]cn1)C(=O)NCCCc1ccccc1
Ki [5]: 150 nM
Ki [1]: 104 nM

B25: peptide 868 (peptide)
peptide: VPKGWRXHEMSYS
modifications: N-terminal acetyl (Ac); C-terminal amide; 2-thienyl-D-Alanine at 7; D-isomers at all residues except Gly 4
Ki [1]: 5.4 nM

B26: peptide 865 (peptide)
peptide: VPKGWHFHEMSYS
modifications: N-terminal acetyl (Ac); C-terminal amide; D-isomers at all residues except Gly 4
Ki [1]: 2300 nM

B27: peptide 890 (peptide)
peptide: VPKGWRXHEXSYS
modifications: N-terminal acetyl (Ac); C-terminal amide; D-Cha at 7; D-buthionine at 10; D-isomers at all residues except Gly 4
Ki [1]: 1.9 nM
Ki [2]: 15000 nM
Ki [3]: 4500 nM
Ki [4]: 14000 nM

B29: RI α-MSH analog 891 (peptide)
peptide: Ac-[dV][dP][dK]G[dW][dR][dCha][dH][dS][dI][dI][dS][dS]-NH2
SMILES: CC[C@@H](C)[C@@H](NC(=O)[C@@H](CO)NC(=O)[C@@H](Cc1c[nH]cn1)NC(=O)[C@@H](CC1CCCCC1)NC(=O)[C@@H](CCCNC(=N)N)NC(=O)[C@@H](Cc1c[nH]c2ccccc12)NC(=O)CNC(=O)[C@@H](CCCCN)NC(=O)[C@H]1CCCN1C(=O)[C@H](NC(C)=O)C(C)C)C(=O)N[C@@H](C(=O)N[C@H](CO)C(=O)N[C@H](CO)C(N)=O)[C@H](C)CC
Ki [1]: 0.43 nM
Ki [2]: 8000 nM
Ki [3]: 2500 nM
Ki [4]: 3200 nM
EC50, cAMP in B16-F1 cells [6]: 81 nM

More lines, now with the values ahead:

Ki [1]: 18 nM
B3: peptide 858 (peptide)
peptide: VPXGWRFHEMSYS
modifications: N-terminal acetyl (Ac); C-terminal amide; D-Norleucine at 3; D-isomers at all residues except Gly 4

Ki [1]: 206 nM
B4: peptide 859 (peptide)
peptide: VPKGXRFHEMSYS
modifications: N-terminal acetyl (Ac); C-terminal amide; 3-benzothienyl-D-Alanine at 5; D-isomers at all residues except Gly 4

Ki [1]: 1.8 nM
Ki [2]: 18000 nM
Ki [4]: 10000 nM
B7: peptide 880 (peptide)
peptide: Ac-[dV][dP][dK]G[dW][dR]F[dH][dS][dI][dI][dS][dS]-NH2
SMILES: CC[C@@H](C)[C@@H](NC(=O)[C@@H](CO)NC(=O)[C@@H](Cc1c[nH]cn1)NC(=O)[C@H](Cc1ccccc1)NC(=O)[C@@H](CCCNC(=N)N)NC(=O)[C@@H](Cc1c[nH]c2ccccc12)NC(=O)CNC(=O)[C@@H](CCCCN)NC(=O)[C@H]1CCCN1C(=O)[C@H](NC(C)=O)C(C)C)C(=O)N[C@@H](C(=O)N[C@H](CO)C(=O)N[C@H](CO)C(N)=O)[C@H](C)CC

Ki [1]: 480 nM
B10: peptide 867 (peptide)
peptide: VPKGWRXHEMSYS
modifications: N-terminal acetyl (Ac); C-terminal amide; 3-pyridyl-D-Alanine at 7; D-isomers at all residues except Gly 4

Ki [1]: 282 nM
B11: peptide 877 (peptide)
peptide: VPKGWRFHEXSYS
modifications: N-terminal acetyl (Ac); C-terminal amide; α-methyl-D-Met at 10; D-isomers at all residues except Gly 4

Ki [1]: 128 nM
B13: peptide 862-b (peptide)
peptide: VPKGFRFHEMSYS
modifications: N-terminal acetyl (Ac); C-terminal amide; D-isomers at all residues except Gly 4

Ki [1]: 96 nM
B14: peptide 860 (peptide)
peptide: VPKGXRFHEMSYS
modifications: N-terminal acetyl (Ac); C-terminal amide; 5-hydroxy-D-Trp at 5; D-isomers at all residues except Gly 4

Ki [1]: 2.5 nM
B15: peptide 808 (peptide)
peptide: VPKGWRFHAMSYS
modifications: N-terminal acetyl (Ac); C-terminal amide; D-isomers at all residues except Gly 4

Ki [1]: 75 nM
B18: peptide 861 (peptide)
peptide: VPKGXRFHEMSYS
modifications: N-terminal acetyl (Ac); C-terminal amide; 5-methoxy-D-Trp at 5; D-isomers at all residues except Gly 4

Ki [1]: 400 nM
B19: peptide 875 (peptide)
peptide: VPKGWRFHDMSYS
modifications: N-terminal acetyl (Ac); C-terminal amide; D-isomers at all residues except Gly 4

Ki [1]: 2500 nM
B23: peptide 870 (peptide)
peptide: VPKGWRWHEMSYS
modifications: N-terminal acetyl (Ac); C-terminal amide; D-isomers at all residues except Gly 4

Ki [5]: > 30000 nM
Binder: Ac-[dW][dR]F[dH]-NH2 [peptide 883]

Ki [1]: 832 nM
B24: peptide 879 (peptide)
peptide: VPKGWRFHEKSYS
modifications: N-terminal acetyl (Ac); C-terminal amide; D-isomers at all residues except Gly 4

Ki [1]: 324 nM
B28: peptide 871 (peptide)
peptide: VPKGWRXHEMSYS
modifications: N-terminal acetyl (Ac); C-terminal amide; 4-Nitro-D-Phe at 7; D-isomers at all residues except Gly 4

From patent US20170313756A1
